The values below are quoted from earlier work in PMC7590900.

This data set has as its target CXCR7 (Homo sapiens) (UniProt P25106).
UniProt P25106, sequence (P25106 whole entry): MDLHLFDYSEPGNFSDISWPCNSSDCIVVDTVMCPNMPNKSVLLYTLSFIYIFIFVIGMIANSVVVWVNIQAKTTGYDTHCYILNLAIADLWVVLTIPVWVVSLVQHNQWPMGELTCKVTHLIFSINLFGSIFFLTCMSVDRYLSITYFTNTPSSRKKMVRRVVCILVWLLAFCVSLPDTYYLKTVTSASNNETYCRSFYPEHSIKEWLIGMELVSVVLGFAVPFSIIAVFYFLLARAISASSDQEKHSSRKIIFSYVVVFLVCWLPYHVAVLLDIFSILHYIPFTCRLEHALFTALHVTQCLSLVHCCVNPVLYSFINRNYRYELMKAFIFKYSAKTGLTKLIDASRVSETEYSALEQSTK

Take CXCL11 (from UniProt O14625): the Kd is 3.5 nM.

The Kd is the equilibrium constant for the complex coming apart.
